Data on seven sequences can be found in a protein production outcome set (Wang et al. 2014).

A short description of the data set: label from the status in PepcDB records.
As to “MKKKAALATLAMLPLGVVNAHADGDIGIVTINYLNVRNEPTAESSIAFVAKKDDKVLIKDSSNGWYKIKAESGQEGWASSKYIAKSNSDSLRTSTNKEKQVISNSLNMRNGAGTSYRVITVLKKGQKVEVISESNGWSKIKYDGRLGYVSSSYLGDVSNSTNKSKTKQVNTTSLNVRSGPNTSYGLLGKLPKGSKVEVISESNGWSKIKYNGKDAYVSSMYLSDVSQSNSDNSSQSNDKKNTDKVVNTASLNVRSGPGSTYSKLGKVYKGSKVTVLSESSGWAKINFNNKEAFVVGNYLSTSADTSNNNSNSNYDNSSNSNGNNSSSSGQVNGMSGISGAKIDYKSLSYTLESHISKQVEKAASGGNVIAPSNRKSTPSPEFSTFSAQRTSSFVNASSSDIEYYLNPKNFTNTTKGMMQFLKINSYRDGISESSLNSYLNGLSSSVFKNQGAAFINAAKKYNIDVVYLVSHAMWETAYGKSTLAQGQTLTSYKGQPLSKPVKVYNFFGIGAIDKSANVSGAEAAYSNGWTSVETTIDGSAKWISQNYVNSSKYNQNTIYKMKWNYDYTWHQYATDVNWANGISGIMENLIGLYRGGSSLVFEVPQYK”, the protein production entry is “failed”. With “MEMIGGDDTDTEMYGALVTAQSLRLRHLHHCRENQCTSVLVKYIQAPVHLVWSLVRRFDQPQKYKPFISRCTVNGDPEIGCLREVNVKSGLPATTSTERLEQLDDEEHILGINIIGGDHRLKNYSSILTVHPEMIDGRSGTMVMESFVVDVPQGNTKDDTCYFVESLIKCNLKSLACVSERLAAQDITNSIATFCNASNGYREKNHTETNL” the entry was “failed”; with “MSDKGTDTKDKEKKAGKKKTASDRIEVRQSGVHGKGVYAIGQIAEGERVIEYKGEHISWKEALKRHPHDPNDPNHTFYFSLDDGDVIDAKFGGNRARWINHACDPNCEAREKKGRVFIHALRDIEPGEELFYDYGLVIDARYTKKLKQEYECRCGSPKCRGTMLAPKDKK”, “failed”; with “MNIILNGGPAELHGTTVADLIAQTAPQKPFAVAVNTVFVPKGAYAETVLNENDKIDIVRPVVGG”, “failed”.

For the sequence “MMKLLSFDEACQWFDSLPAHKRIATLSPYYVLLDALRDTRLLATYIGFRQGDVFWMHSVHCSAAMAGEVIDLQSPYGYGGPISNCDDPVFLNMVWDLYVEFCARQGWLAEFVRFHPLGGVSSSYGGTIVVDRLTVAIDLTGPNIRSIYSTRCRTAVRKAINNGLNVRVGSERELREIFPHFYRDGMRAIAADKFYLFNDLYFSGFSTWKCATLLICHCDDDWLSAGIFLKDGNVMEYHLSATTPAGRNLGATNLLLDAAAHLGQEQGCSFLYLGGGTDSEKNNPLLFFKSGFSAATYPFLIGFTAFNQDKYQALREKFISDHKPTDRFLFYR”, the protein production result was “failed”. As for “MKHAFDRFVQYLQKNYFSYWIVLGIDTFIALICTWVSFIGIHYITETSKEITSLFHILAISVISSILGSFLFHTYRNTIRFSQLKELWRLAGSALIKAVCIAMAIWLFLPQTGLHNSQKIVFVLFDGMLTFIAMVGFRIQLILVYELLLNMLNKKNMHILIYGIDDKSVALKVRLMNSSHYKVVGFCIYGTGDSIRRVADLPVYSFKDEECFNKLIHKKCIGGILFARYENTREEEDRLLQYCKRSGLKTLIAPSISEADENGSFHQWVRPIKIEDLLGRSEIHINMEEVMTEFCGKVVLVTGAAGSIGSELCRQLAQMNIKKLIMFDSAESPLHNVRLEFEKNYPDLDFVPVIGDVRVKERLRMVFETYQPQIIFHAAAYKHVPLMEENPCEAVLVNVVGSRQVADMAVEYGAEKMIMVSTDKAVNPTNVMGCSKRLAEIYVQSLGCAIREGKVKGHTKFITTRFGNVLGSNGSVIPRFKEQIENGGPVTVTHPDIIRFFMTIPEACRLVMEAATMGEGNEIFVFEMGKAVKIVDLATRMIELAGYRPGEDIEIEFTGLRPGEKLYEEVLSDKENTIPTENKKIMIAKVRHYEYTDILDTYTEFEKLSRSVQIMDTVKLMKRVVPEFKSKNSPRFEVLDR”, the entry is “failed”; as for “PLKEQKVINTANIKTNSKLDLAEYENGLINIATQQFDTESHVLQLNQYIPEKLIDELVAKVEAPVLTNIIEQDYFGKQNSNELSLSGVMIGLAMSSSVSNEEAMSKGTEVAKQLIEAINKNDKYNKSPITFAIFKQESTSSLKNGTYIASATVQKNDTNLGNWSTIDEKSYSYPSDEFTQAHGEDNTKINNFAKEIKGFSNGDFIPVNAKVSYKKDQMDTLNMNIVIKYNGKTELMALTQLAAQGMLDKLPKDAKVQLQIKSESKIEAVIIKEKNSDKPFVSFL”, “not failed”.
